Results taken from US20030228258A1.

Tests used:
[1] = molecular target: T cell receptors of the mouse LLO91-99-specific CD8+ T cell line (mouse); test: cell-based or functional assay
[2] = molecular target: T cell receptors of the mouse p60217-225-specific CD8+ T cell line (mouse); test: cell-based or functional assay
[3] = molecular target: T cell receptors of the mouse LLO91-99-specific CD8+ T cell line (mouse); test: flow cytometry, tetramer staining at 37 C, 1 h incubation
[4] = molecular target: T cell receptors of the mouse LLO91-99-specific CD8+ T cell line (mouse); test: flow cytometry, tetramer staining at 37 C, 8 h incubation
[5] = molecular target: T cell receptors of the mouse LLO91-99-specific CD8+ T cell line (mouse); test: flow cytometry, tetramer staining of CD8+ T cell line
[6] = molecular target: T cell receptors of the mouse p60217-225-specific CD8+ T cell line (mouse); test: as above
[7] = molecular target: T cell receptors of the mouse LLO91-99-specific CD8+ T cell line (mouse); test: flow cytometry, tetramer staining at 37 C, column headed 2 h
[8] = molecular target: T cell receptors of the human Flu-specific (Flu58-66) CD8+ T cell line (human); test: flow cytometry, tetramer staining at 37 C, 1 h incubation
[9] = molecular target: T cell receptors of the human Flu-specific (Flu58-66) CD8+ T cell line (human); test: flow cytometry, tetramer staining at 37 C, 8 h incubation
[10] = molecular target: T cell receptors of the human Flu-specific (Flu58-66) CD8+ T cell line (human); test: flow cytometry, tetramer staining of CD8+ T cell line
[11] = molecular target: T cell receptors of the human Flu-specific (Flu58-66) CD8+ T cell line (human); test: flow cytometry, tetramer staining at 37 C, 24 h incubation
[12] = molecular target: T cell receptors of the human Flu-specific (Flu58-66) CD8+ T cell line (human); test: flow cytometry, tetramer staining at 37 C, column headed 2 h

Question: Which results are given for “225Ac-labeled LLO91 tetramer (225Ac-DOTA-biotin, LLO91/H-2K^d monomers, streptavidin) (from UniProt P61769 21-119; P22629 37-163; P01902 22-305) (peptide-MHC)”?
Answer: IFN-γ ELISPOT, spots, non-treated vs treated with 10 nCi/ml for 72 hr (specific IFN-γ spots (treated)) [1]: 83; cell killing (ED50) [1]: 4 to 8 nCi/ml; IFN-γ ELISPOT, spots, non-treated vs treated with 10 nCi/ml for 72 hr (specific IFN-γ spots (treated)) [2]: 105; cell killing (ED50) [2]: 100 to 200 nCi/ml

Question: “LLO91-99/H-2K^d tetramer (fluorescent, non-radiolabeled) (from UniProt P61769 21-119; P22629 37-163; P01902 22-305) (peptide-MHC)” was tested. Which % tetramer binding of CD8+ T cells [3] did it give?
Answer: The % tetramer binding of CD8+ T cells was 76%.

Question: And the % tetramer binding of CD8+ T cells [4]?
Answer: Its % tetramer binding of CD8+ T cells is 63%.

Question: And the % of CD8+ T cells that bound the tetramer [5]?
Answer: The % of CD8+ T cells that bound the tetramer was 76%.

Question: What about the % of CD8+ T cells stained with the tetramer [6] of the same substance?
Answer: The % of CD8+ T cells stained with the tetramer was 1.3%.

Question: And the % tetramer binding of CD8+ T cells [7]?
Answer: The % tetramer binding of CD8+ T cells was 75%.

Question: Which % tetramer binding of CD8+ T cells [8] does the source give for “LMP1/HLA-A2 tetramer (PE- or FITC-streptavidin, non-radiolabeled) (from UniProt P61769 21-119; P22629 37-163) (peptide-MHC)” here?
Answer: Its % tetramer binding of CD8+ T cells is 0.9%.

Question: And the % tetramer binding of CD8+ T cells [9]?
Answer: The % tetramer binding of CD8+ T cells was 1.5%.

Question: And the % of CD8+ T cells stained with the tetramer [10]?
Answer: The % of CD8+ T cells stained with the tetramer was 1%.

Question: And the % tetramer binding of CD8+ T cells [11]?
Answer: Its % tetramer binding of CD8+ T cells is 1%.

Question: What about the % tetramer binding of CD8+ T cells [12] of the same substance?
Answer: The % tetramer binding of CD8+ T cells was 1.2%.

Question: “p60217-225/H-2K^d tetramer (from UniProt P61769 21-119; P22629 37-163; P01902 22-305) (peptide-MHC)” was tested. Which % of CD8+ T cells stained positive for the tetramer [6] did it give?
Answer: The % of CD8+ T cells stained positive for the tetramer was 70%.
